From paper PMC6194501, “A chemical reporter facilitates the detection and identification of lysine HMGylation on histones† †Electronic supplementary information (ESI) available: Experimental methods and figures. See DOI: 10.1039/c8sc02483a” (Chemical Science, 2018)
Starred links: 1 amine or outer side, 2 acyl side, 3 side chain; linkers in the order of their positions; H or OH if unused. No end group written: not given here. Glutaryl = O=C(CCCC(=O)[*:2])[*:1]

T1: human Sirt5 (human, UniProt Q9NXA8 37-310)
T1 construct: Sirt5 (sirtuin 5), human; the ESI (experimental methods) may tell them; also called sirtuin 5
T1 sequence (looked up): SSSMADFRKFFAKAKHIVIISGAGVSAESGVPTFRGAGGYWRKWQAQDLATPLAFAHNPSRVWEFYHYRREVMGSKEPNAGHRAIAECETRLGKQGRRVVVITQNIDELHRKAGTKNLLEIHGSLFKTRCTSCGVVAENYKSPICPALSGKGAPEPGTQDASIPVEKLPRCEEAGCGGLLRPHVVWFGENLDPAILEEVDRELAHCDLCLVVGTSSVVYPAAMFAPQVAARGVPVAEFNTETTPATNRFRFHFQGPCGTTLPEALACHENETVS


Biological target: T1, human Sirt5
Experiment: ITC; isothermal titration calorimetry of Sirt5 with H3K9 acyl peptides; which partner was titrated and the conditions are not told in the text shown
Details: both partners purified

Kd [µM]	Binder
12.6	KQTARK(Glutaryl)STGGKA [H3K9glu]
61.7	KQTARK(HMG)STGGKA [histone H3 peptide carrying an HMG mark at Lys9]
35	ARTKQTARKSTGGKA (malonyl-lysine (Kmal) at Lys9) [H3K9mal]
